Source: publication PMC2761027

B1: UvrD1 (Mycolicibacterium smegmatis MC2 155) (protein)
chain: MTSPSATPFAAETDQLLDGLNPQQRQAVLHEGSPLLIVAGAGSGKTAVLTRRIAYLLAEREVGVGQVLAITFTNKAAAEMRERVVQLVGPRAKAMWVSTFHSTCVRILRNQASLLPGLNSNFSIYDSDDSRRLLMMIGKDLGLDTKRYSPRLLANGISNLKNELIGPEQAAAEASEASDEMATVIAQVYGEYQRRLRAANALDFDDLIGETVAVLQAFPQIAQYYRRRFRHILVDEYQDTNHAQYVLVRELVGHHLEDHDGVPPSELCVVGDADQSIYAFRGATIRNIEDFERDFPDATTILLEQNYRSTQTILNAANAVIARNTGRREKRLWTDAGQGELIVGYVADNEHDEARFVADEIDALTDRHGYNYNDIAVFYRTNNSSRALEEVFIRAGIPYKVVGGVRFYERREIRDIVAYLRVLDNPGDSVSMRRILNTPRRGIGDRAEACVAVYAENTGVSFNEALQAAAEGRVPMLNTRSEKCIASFVQMLDDLRGKLDEELGDLVEAVLERTGYRRELEASSDPQDLARLDNLNELVSVAHEFSIDLANAQALAEESDEPVDEDIPDTGVLAQFLERVSLVADADDIPEEGSGVVTMMTLHTAKGLEFPAVFVTGWEDGMFPHMRALGDPNELSEERRLAYVGITRARQRLYLSRAKVRSSWGQPMLNPESRFLREIPQELIDWRRIEAPTPAYAAPGRMSSSGGGGIGFGSPRPSPNRPGGGRNKPLMVLQPGDRVTHDKYGLGRVEEVAGTGESAMSLIDFGSAGRVKLMHNHAPLQKL
B2: UvrD1 (Mycolicibacterium smegmatis MC2 155; Q24A) (protein)
chain: MTSPSATPFAAETDQLLDGLNPQARQAVLHEGSPLLIVAGAGSGKTAVLTRRIAYLLAEREVGVGQVLAITFTNKAAAEMRERVVQLVGPRAKAMWVSTFHSTCVRILRNQASLLPGLNSNFSIYDSDDSRRLLMMIGKDLGLDTKRYSPRLLANGISNLKNELIGPEQAAAEASEASDEMATVIAQVYGEYQRRLRAANALDFDDLIGETVAVLQAFPQIAQYYRRRFRHILVDEYQDTNHAQYVLVRELVGHHLEDHDGVPPSELCVVGDADQSIYAFRGATIRNIEDFERDFPDATTILLEQNYRSTQTILNAANAVIARNTGRREKRLWTDAGQGELIVGYVADNEHDEARFVADEIDALTDRHGYNYNDIAVFYRTNNSSRALEEVFIRAGIPYKVVGGVRFYERREIRDIVAYLRVLDNPGDSVSMRRILNTPRRGIGDRAEACVAVYAENTGVSFNEALQAAAEGRVPMLNTRSEKCIASFVQMLDDLRGKLDEELGDLVEAVLERTGYRRELEASSDPQDLARLDNLNELVSVAHEFSIDLANAQALAEESDEPVDEDIPDTGVLAQFLERVSLVADADDIPEEGSGVVTMMTLHTAKGLEFPAVFVTGWEDGMFPHMRALGDPNELSEERRLAYVGITRARQRLYLSRAKVRSSWGQPMLNPESRFLREIPQELIDWRRIEAPTPAYAAPGRMSSSGGGGIGFGSPRPSPNRPGGGRNKPLMVLQPGDRVTHDKYGLGRVEEVAGTGESAMSLIDFGSAGRVKLMHNHAPLQKL

Key:
purified protein = substrate: Nc1ncnc2c1ncn2[C@@H]1O[C@H](COP(=O)(O)OP(=O)(O)OP(=O)(O)O)[C@@H](O)[C@H]1O; assay: purified protein; assay type: biochemical, Mycolicibacterium smegmatis; conditions: salmon sperm DNA, 5 mM MgCl2, pH 8.0, 37 °C, labelled compound
[1] = substrate: O=c1ccn([C@@H]2O[C@H](COP(=O)(O)OP(=O)(O)OP(=O)(O)O)[C@@H](O)[C@H]2O)c(=O)[nH]1; assay: labelled UDP formation from labelled UTP, TLC, Michaelis-Menten fit; assay type: biochemical, Mycolicibacterium smegmatis; conditions: salmon sperm DNA, 5 mM MgCl2, pH 8.0, 37 °C, labelled compound

| Protein | Km (purified protein) | kcat (purified protein) | Km [1] | kcat [1] |
| --- | --- | --- | --- | --- |
| B1 | 260 ± 40 µM | 265 ± 22 s⁻¹ | – | – |
| B2 | 690 ± 50 µM | 95 ± 3 s⁻¹ | 1210 ± 130 µM | 86 ± 5 s⁻¹ |
